The subject of series [1] is Wistar-derived SPF female rats. As to the kind of experiment: Acute toxicity experiment of arazyme, single oral administration. Format: in vivo. On the procedure:
4 groups, each consisting of 4 Wistar-derived specific pathogen free (SPF) female rats (Orient Co., Ltd., Seoul, Korea), were bred in an animal laboratory under conditions of temperature 22° C.±3° C., humidity 55±10%, and illumination 12 L/12 D. After purchase, the rats were quarantined and adapted in the animal laboratory for 1 week. During the whole test period, 5 or less rats were accommodated in each polycarbonate cage (240 W×390 L×175 H mm). For individual identification, both skin mark using an oil marker and group distinction cards at each breeding box were used. Solid fodder for experimental animals (PMI Nutrition International, USA) was sterilized, and tap water was freely given by a water bottle.
Arazyme in the Examples was dissolved in sterilized water for injection at 0, 1250, 2500, and 5000 mg/kg, prepared at a dose of 10 ml/kg, and orally administered to the rats using zonde one. After 1 week adaptation, the rats were divided into 4 groups and arazyme was administered to 10 week-old rats at each concentration to observe general symptoms. Subsequently, an autopsy was performed after 24 hours in order to evaluate the toxicity of arazyme on actual organs.
After oral administration of arazyme into female rats, the behaviors, appearances, and functions of the animals were investigated in order to observe general symptoms exactly according to the administration of a test material and evaluate the toxicity.

Series [2] has as its system joint cartilage of osteoarthritis-induced right knee. The series can be described thus: Histopathological observation of joint cartilage (H&E, toluidine blue, azan), osteoarthritis-induced rabbits. The conditions noted are these: autopsy at 12 weeks, optical microscope. Format: in vivo, NewZealand White Rabbits. The source says:
(§1) It is known that not only repetitive joint damage but also a lesion similar to that of human degenerative osteoarthritis is induced in a rabbit model with knee meniscus removed. A method for tearing the cranial cruciate ligament is used as a method for inducing osteoarthritis in rabbits (Hulth A. et al., Acta Orthp Scand. 41:522-530, 1970). In the present experiment, the cranial cruciate ligament of a rabbit was torn to induce the instability of joints and simultaneously medial meniscus was removed to induce osteoarthritis.
The cranial cruciate ligaments of right knees of all the experimental animals were torn to induce the instability of joints and medial meniscuses were simultaneously removed to induce osteoarthritis. Sharm-operations were performed on the left knees to be used as a control against administration of a test material. Tear of cranial cruciate ligament and medial meniscus removal were performed as follows. The animals were fasted for 6 to 12 hours prior to the operation and only drinking water was supplied. Subsequently, an anesthetic of Xylazine (Rompun, Bayer Korea Ltd.) at 1.25 ml/6 mg/kg and Zoletil50 (Virbac) at 0.2 ml/10 mg/kg was intramuscularly injected to anesthetize the animals. […]
(§2) In order to induce osteoarthritis effectively, all the animals in the experimental group were subjected to a forced exercise task using a treadmill for 5 min every day from the day 4 after the induction surgery of osteoarthritis, and arthrography was performed on both knee joints at 4 weeks, 8 weeks, and 12 weeks after administration of the test material to measure the changes of joint surface. An autopsy was performed at 12 weeks after administration of the test material to conduct serologic tests of blood samples through collection of blood and control effects of the test material on osteoarthritis were assessed through a histopathological test. […]

Another series has as its system TNF-α. As to the kind of experiment: Measurement of TNF-α in serum by ELISA, osteoarthritis-induced rabbits. In kind it is in vivo, NewZealand White Rabbits. The conditions noted are these: autopsy at 12 weeks of administration in drinking water, arazyme 250 mg/kg, celecoxib 10 mg/kg/day, no statistical significance.
Source text: as §1
(§3) The cranial cruciate ligaments of right knees of all the experimental animals were torn to induce the instability of joints and medial meniscuses were simultaneously removed to induce osteoarthritis. […]
as §2
(In general: An ELISA detects its analyte on a solid surface through an enzyme-linked reagent.)

The test system of series [3] is joint cartilage of osteoarthritis-induced right knee. As to the kind of experiment: Visual observation of the changes of joint cartilage, osteoarthritis-induced rabbits. In kind it is in vivo, NewZealand White Rabbits. The conditions noted are these: autopsy at 12 weeks.
Source text: as §1, §3, §2

Setting [4] is: after single oral administration up to 5000 mg/kg.

B1: arazyme: enzyme purified from Aranicola proteolyticus HY-3 (KCTC 0268BP) culture; monomer of approximately 51.5 kDa; amino acid sequence SEQ ID No: 1 (protein, listed as Aranicola proteolyticus)
chain: MQSTKKAIEITESSLAAASSAYNAVDDLLHYHERGNGIQVNGKDSFSTEQAGLFITRENQTWNGYKVFGQPVKLTFSFPDYKFSSTNVAGDTGLSKFSAEQQQQAKLSLQSWSDVANITFTEVGAGQKANITFGNYSQDRPGHYDYDTQAYAFLPNTIYQGQNLGGQTWYNVNQSNVKHPASEDYGRQTFTHEIGHALGLSHPGDYNAGEGNPTYRDASYAEDTREFSLMSYWSETNTGGDNGGHYAAAPLLDDISAIQHLYGANQTTRTGDTVYGFNSNTGRDFLSTTSNPQKVIFAAWDAGGNDTFDFSGYTANQRINLNEKSFSDVGGLKGNVSIAAGVTIENAIGGSGNDVIVGNAANNVLKGGAGNDVLFGGGGADELWGGAGKDTFVFSAVSDSAPGASDWIKDFQKGIDKIDLSFFNQGAQGGDQIHFVDHFSGAAGEALLSYNASNNVSDLALNIGGHQAPDILVKIVGQVDVATDFIV
modifications: Zn binding site (192)..(192); Zn binding site (196)..(196); Zn binding site (323)..(323)
For the molecule B1, the “microscopic findings in liver, heart, lung and pancreas” value in series [1] (24 hours after oral administration up to 5000 mg/kg) was “No pathological symptoms were observed”. For the same molecule, in series [1] (setting [4]), the “general symptoms (activity, walking, temperament, convulsion)” value was “no abnormal symptoms”; the “outward appearance and functions (respiration, salivation, feces, vomiting)” value is on record as “No abnormal changes were observed”. Also, the “estimated LD50” value in series [1] (single oral administration 0, 1250, 2500, 5000 mg/kg) is listed as “at least 5000 mg/kg”. Also, in series [2], the “damage of joint cartilage, hematoxylin-eosin staining” value is given as “most of the vertical fissures were formed into sites corresponding to the mid zones from the surface”; the “loss of collagen, azan staining” value is reported as “weak loss of collagen”; the “loss of proteoglycan, toluidine blue staining” value is “proteoglycan was lost into the mid zone”. Moreover, the “expression of TNF-α in serum compared with negative control group” value with TNF-α is on record as “at a lower level than the negative control group”. Further, in series [3] (arazyme 250 mg/kg, celecoxib 10 mg/kg/day), the “cartilage damage of femoral joint surface, visual observation” value is recorded as “less cartilage damage was generally shown than in the negative control group”. In series [3] (positive control group compared with test material group), the “lesions of tibia joint surface, visual observation” value is reported as “generally similar lesions were observed in the groups”.

(Values after patent US20100278806A1, “Composition Containing Arazyme for the Prevention and Treatment of Arthritis” (Insect Biotech Co., Ltd., priority 2008, published 2010).)
